In assay [1] the target is LRP1 (alpha2-macroglobulin receptor/CD91) receptor (BioMac) (UniProt Q07954). Briefly: SPR (Biacore), LRP1 immobilized on CM4 chip; mean KD of lots K-N. In general terms: In SPR one partner is held on a chip, and binding of the other changes the refractive index at the surface.
Assay [2] deals with Plasma-derived VWF (pdVWF, Diagnostica Stago) (UniProt P04275). Briefly: SPR (Biacore), pdVWF immobilized on CM5 chip; mean KD of lots K-N.
For assay [3], the target named is LRP1 (alpha2-macroglobulin receptor/CD91) receptor (BioMac) (UniProt Q07954). Briefly: SPR (Biacore), LRP1 immobilized on CM4 chip; mean KD of lots A-C.
Assay [4] shares this target. Briefly: SPR (Biacore), LRP1 immobilized on CM4 chip; mean KD of lots D-F.
Assay [5] concerns the target Plasma-derived VWF (pdVWF, Diagnostica Stago) (UniProt P04275). Briefly: SPR (Biacore), pdVWF immobilized on CM5 chip; mean KD of lots G-I.
The target is the same in assay [6]. Briefly: SPR (Biacore), pdVWF immobilized on CM5 chip; mean KD of lots A-C.
For assay [7] the target is unchanged. Briefly: SPR (Biacore), pdVWF immobilized on CM5 chip; mean KD of lots D-F.

Experimental findings from patent US20190240295A1 are described below.

What is called Kd is a measure of binding affinity in units of concentration.

Sequence of UniProt Q07954 (Q07954 20-4544 limits assumed): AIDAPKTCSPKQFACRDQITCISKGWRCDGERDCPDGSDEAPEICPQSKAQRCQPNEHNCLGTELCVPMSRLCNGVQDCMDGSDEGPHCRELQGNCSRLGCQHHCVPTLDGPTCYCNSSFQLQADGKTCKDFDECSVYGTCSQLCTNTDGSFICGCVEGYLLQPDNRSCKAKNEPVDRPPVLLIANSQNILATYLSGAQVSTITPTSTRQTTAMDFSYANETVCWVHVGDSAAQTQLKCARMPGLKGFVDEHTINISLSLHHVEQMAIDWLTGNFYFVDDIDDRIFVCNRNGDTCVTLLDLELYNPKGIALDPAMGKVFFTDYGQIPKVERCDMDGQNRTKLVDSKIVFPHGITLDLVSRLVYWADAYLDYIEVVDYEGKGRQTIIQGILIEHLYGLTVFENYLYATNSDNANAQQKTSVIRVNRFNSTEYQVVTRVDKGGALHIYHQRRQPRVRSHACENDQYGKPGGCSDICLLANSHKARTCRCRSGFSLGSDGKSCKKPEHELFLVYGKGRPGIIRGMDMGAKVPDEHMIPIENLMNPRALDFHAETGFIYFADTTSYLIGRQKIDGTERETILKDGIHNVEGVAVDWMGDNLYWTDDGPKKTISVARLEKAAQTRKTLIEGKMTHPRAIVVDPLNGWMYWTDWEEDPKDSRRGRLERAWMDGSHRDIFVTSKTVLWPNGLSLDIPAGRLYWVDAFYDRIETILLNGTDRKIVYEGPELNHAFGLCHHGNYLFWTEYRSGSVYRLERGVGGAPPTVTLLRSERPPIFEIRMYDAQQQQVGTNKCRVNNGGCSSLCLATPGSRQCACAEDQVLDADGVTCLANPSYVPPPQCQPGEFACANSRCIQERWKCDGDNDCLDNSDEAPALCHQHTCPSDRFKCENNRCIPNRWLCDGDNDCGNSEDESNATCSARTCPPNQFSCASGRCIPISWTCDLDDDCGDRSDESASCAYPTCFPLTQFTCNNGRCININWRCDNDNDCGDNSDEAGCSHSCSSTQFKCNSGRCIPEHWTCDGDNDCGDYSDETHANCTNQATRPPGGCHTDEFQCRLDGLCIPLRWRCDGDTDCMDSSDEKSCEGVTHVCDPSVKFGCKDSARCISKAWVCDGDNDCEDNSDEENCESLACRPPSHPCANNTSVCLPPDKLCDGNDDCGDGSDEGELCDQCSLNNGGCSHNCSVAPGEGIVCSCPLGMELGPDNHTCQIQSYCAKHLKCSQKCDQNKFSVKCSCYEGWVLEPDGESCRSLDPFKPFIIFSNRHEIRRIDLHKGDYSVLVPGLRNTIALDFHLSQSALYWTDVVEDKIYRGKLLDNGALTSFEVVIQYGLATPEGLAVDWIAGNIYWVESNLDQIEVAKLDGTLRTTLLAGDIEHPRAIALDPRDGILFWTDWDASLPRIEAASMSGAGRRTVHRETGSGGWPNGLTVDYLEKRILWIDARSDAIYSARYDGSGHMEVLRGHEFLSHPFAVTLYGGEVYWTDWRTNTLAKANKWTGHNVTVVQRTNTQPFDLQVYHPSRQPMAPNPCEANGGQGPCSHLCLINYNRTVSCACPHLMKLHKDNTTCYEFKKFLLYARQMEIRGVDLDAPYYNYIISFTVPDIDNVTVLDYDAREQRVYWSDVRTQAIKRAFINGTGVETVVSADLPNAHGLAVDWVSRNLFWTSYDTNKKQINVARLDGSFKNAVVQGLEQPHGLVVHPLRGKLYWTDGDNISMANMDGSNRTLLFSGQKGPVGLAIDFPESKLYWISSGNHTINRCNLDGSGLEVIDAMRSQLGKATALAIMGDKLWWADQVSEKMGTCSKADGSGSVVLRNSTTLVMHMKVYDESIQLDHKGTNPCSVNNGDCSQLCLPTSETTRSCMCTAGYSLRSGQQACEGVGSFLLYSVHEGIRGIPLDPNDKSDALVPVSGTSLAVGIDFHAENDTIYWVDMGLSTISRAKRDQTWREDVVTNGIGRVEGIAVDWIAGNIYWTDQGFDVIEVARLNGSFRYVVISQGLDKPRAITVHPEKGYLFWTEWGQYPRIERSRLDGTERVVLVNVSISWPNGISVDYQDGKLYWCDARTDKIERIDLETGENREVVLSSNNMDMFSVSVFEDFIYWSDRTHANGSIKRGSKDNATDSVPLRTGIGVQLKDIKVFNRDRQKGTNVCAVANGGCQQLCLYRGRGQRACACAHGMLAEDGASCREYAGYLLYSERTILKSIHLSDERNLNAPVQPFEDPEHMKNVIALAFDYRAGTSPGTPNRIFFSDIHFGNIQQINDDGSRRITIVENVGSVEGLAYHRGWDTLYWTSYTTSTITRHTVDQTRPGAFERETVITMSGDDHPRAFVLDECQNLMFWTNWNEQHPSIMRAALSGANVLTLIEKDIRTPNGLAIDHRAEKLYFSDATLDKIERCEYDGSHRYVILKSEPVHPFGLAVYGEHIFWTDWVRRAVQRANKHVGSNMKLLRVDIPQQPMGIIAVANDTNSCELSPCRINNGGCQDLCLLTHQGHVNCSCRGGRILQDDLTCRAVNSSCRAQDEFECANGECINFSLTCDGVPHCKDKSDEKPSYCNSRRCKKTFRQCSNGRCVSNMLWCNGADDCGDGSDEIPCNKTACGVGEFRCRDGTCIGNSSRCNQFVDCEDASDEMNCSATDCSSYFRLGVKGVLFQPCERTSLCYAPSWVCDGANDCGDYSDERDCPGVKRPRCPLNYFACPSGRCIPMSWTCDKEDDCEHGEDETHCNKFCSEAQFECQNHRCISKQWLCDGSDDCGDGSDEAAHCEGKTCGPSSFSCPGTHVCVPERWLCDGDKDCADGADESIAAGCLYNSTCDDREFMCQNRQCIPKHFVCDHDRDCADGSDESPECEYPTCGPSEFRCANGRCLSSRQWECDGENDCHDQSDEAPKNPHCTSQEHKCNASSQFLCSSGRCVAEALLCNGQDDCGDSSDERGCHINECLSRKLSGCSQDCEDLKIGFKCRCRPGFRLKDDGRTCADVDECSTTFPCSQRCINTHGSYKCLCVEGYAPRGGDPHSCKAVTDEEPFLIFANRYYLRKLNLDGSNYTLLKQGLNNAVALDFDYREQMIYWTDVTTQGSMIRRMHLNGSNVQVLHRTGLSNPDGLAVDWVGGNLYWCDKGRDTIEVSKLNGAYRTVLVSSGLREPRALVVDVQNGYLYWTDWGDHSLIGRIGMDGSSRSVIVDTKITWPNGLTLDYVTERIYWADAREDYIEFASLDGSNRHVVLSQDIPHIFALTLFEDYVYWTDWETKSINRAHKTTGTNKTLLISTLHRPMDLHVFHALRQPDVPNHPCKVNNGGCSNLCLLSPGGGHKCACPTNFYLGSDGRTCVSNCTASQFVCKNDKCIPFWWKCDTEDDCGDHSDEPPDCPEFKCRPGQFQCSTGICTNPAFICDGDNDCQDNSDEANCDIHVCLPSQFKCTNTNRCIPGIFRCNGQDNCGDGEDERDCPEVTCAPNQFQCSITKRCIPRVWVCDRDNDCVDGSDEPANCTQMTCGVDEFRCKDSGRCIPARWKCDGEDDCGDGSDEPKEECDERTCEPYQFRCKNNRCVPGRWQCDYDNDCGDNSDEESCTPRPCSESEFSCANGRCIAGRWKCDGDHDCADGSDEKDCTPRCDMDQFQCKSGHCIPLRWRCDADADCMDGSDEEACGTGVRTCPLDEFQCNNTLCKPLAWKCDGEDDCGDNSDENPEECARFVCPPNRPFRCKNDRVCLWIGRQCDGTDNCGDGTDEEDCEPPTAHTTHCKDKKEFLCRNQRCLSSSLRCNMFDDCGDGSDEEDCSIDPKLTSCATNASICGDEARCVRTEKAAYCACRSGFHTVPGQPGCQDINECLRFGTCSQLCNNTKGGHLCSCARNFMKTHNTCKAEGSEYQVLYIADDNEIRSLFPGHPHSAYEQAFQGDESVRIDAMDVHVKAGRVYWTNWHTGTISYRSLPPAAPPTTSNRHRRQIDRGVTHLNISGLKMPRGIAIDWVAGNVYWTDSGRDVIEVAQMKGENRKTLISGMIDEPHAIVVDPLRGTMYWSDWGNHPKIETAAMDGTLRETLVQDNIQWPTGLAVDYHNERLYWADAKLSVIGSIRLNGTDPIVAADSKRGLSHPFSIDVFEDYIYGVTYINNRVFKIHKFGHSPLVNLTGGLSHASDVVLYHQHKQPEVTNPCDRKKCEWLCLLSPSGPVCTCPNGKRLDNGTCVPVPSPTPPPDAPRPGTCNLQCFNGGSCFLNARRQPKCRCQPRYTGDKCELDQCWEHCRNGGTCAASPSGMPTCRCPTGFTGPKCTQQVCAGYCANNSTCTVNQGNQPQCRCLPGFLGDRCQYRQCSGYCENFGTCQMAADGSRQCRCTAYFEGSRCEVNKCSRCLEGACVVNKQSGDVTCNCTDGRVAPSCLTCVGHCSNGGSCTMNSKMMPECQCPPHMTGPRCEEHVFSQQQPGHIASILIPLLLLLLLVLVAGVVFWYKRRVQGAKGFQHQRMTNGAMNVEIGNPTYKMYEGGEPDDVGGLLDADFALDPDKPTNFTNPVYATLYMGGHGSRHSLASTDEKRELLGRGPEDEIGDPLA

Take “rebuffered rFVIII (unmodified recombinant Factor VIII) (from UniProt P00451 20-2351)”: the equilibrium dissociation constant (Kd) in assay [1] worked out at 22.3 nM; in assay [2], 0.32 nM.
With “PSA-rFVIII (polysialylated recombinant Factor VIII) (from UniProt P00451 20-2351)”, the Kd in assay [3] came to 19 nM; in assay [4], 32 nM; in assay [5], 0.31 nM; in assay [6], 0.28 nM; in assay [7], 0.28 nM.
